Laboratory results from US20250043022A1 (JIANGSU HENGRUI PHARMACEUTICALS, published 2025).
Residue numbers refer to the chain shown, from its start.

B1: HJ-3 (bispecific antibody)
chain 1: not shown
chain 2: DIQMTQSPSSVSASVGDRVTITCRASQDIANYLSWYQQKPGKSPKLLIYGTSNLEVGVPSRFSGSRSGTDFTLTISSLQPEDFATYYCLQDKEFPRTFGGGTKVEIKGGGGSSGAPRFLTRPLAFVVSVGKDATLSSQIVGNPTPQVSWEKDKQPVTAGARFRLAQDGDLYRLKILDLQLSDSGQYVSRARNAIGEAFACLGLQVDAEA
chain 3: EVQLVQSGAEVKKPGSSVKVSCKASGYTFSNYLIEWVRQAPGQGLEWIGVIDPGVGDTNYNENFKGRATLTADKSTSTAYIELSSLRSEDTAVYYCAREDNTGTAFDYWGQGTTVTVSSASTKGPSVFPLAPSSKSTSGGTAALGCLVKDYFPEPVTVSWNSGALTSGVHTFPAVLQSSGLYSLSSVVTVPSSSLGTQTYICNVNHKPSNTKVDKKVEPKSCDKTHTCPPCPAPEAAGGPSVFLFPPKPKDTLMISRTPEVTCVVVDVSHEDPEVKFNWYVDGVEVHNAKTKPREEQYNSTYRVVSVLTVLHQDWLNGKEYKCKVSNKALPAPIEKTISKAKGQPREPQVCTLPPSREEMTKNQVSLSCAVKGFYPSDIAVEWESNGQPENNYKTTPPVLDSDGSFFLVSKLTVDKSRWQQGNVFSCSVMHEALHNHYTQKSLSLSPGKDYKDDDDK
chain 4: SIVMTQTPLSLSVTPGQPASISCKASQSVSSDVTWYLQKPGQSPQLLIYYVSEHYTGVPDRFSGSGYGTDFTLKISRVEAEDVGVYYCQQHHRFPLTFGQGTKLEIKRTVAAPSVFIFPPSDEQLKSGTASVVCLLNNFYPREAKVQWKVDNALQSGNSQESVTEQDSKDSTYSLSSTLTLSKADYEKHKVYACEVTHQGLSSPVTKSFNRGEC
B2: HJ-6 (bispecific antibody)
chain 1: not shown
chain 2: B1 chain 2 with R121C, L123K, F125S, T144F, A160V, I194H
chain 3: EVQLVQSGAEVKKPGSSVKVSCKASGYTFSNYLIEWVRQAPGQGLEWIGVIDPGVGDTNYNENFKGRATLTADKSTSTAYIELSSLRSEDTAVYYCAREDNTGTAFDYWGQGTTVTVSSASTKGPSVFPLAPSSKSTSGGTAALGCLVKDYFPEPVTVSWNSGALTSGVHTFPAVLQSSGLYSLSSVVTVPSSSLGTQTYICNVNHKPSNTKVDKKVEPKSCDKTHTCPPCPAPEAAGGPSVFLFPPKPKDTLMISRTPEVTCVVVDVSHEDPEVKFNWYVDGVEVHNAKTKPREEQYNSTYRVVSVLTVLHQDWLNGKEYKCKVSNKALPAPIEKTISKAKGQPREPQVCTLPPSREEMTKNQVSLSCAVKGFYPSDIAVEWESNGQPENNYKTTPPVLDSDGSFFLVSKLTVDKSRWQQGNVFSCSVMHEALHNHYTQKSLSLSPGK
chain 4: B1 chain 4
B3: HJ-11 (bispecific antibody)
chain 1: not shown
chain 2: DIQMTQSPSSVSASVGDRVTITCRASQDIANYLSWYQQKPGKSPKLLIYGTSNLEVGVPSRFSGSRSGTDFTLTISSLQPEDFATYYCLQDKEFPRTFGGGTKVEIKRTVASSGCPRFLTRPKASVVSVGKDATLSCQIVGNPFPQVSWEKDKQPVTAGVRFRLAQDGDLYRLKILDLQLSDSGQYVCRARNAHGEAFACLGLQVDAEA
chain 3: B2 chain 3
chain 4: B1 chain 4
B4: HJ-5 (bispecific antibody)
chain 1: not shown
chain 2: B1 chain 2 with L123K, F125S, T144F, A160V, I194H
chain 3: B2 chain 3
chain 4: B1 chain 4
B5: HJ-9 (bispecific antibody)
chain 1: not shown
chain 2: B3 chain 2 with C115A, R121C, C137S, C188S
chain 3: B2 chain 3
chain 4: B1 chain 4
B6: HJ-7 (bispecific antibody)
chain 1: not shown
chain 2: B3 chain 2 with R108G, T109G, V110G, A111G, C115A
chain 3: B2 chain 3
chain 4: B1 chain 4
B7: HJ-8 (bispecific antibody)
chain 1: not shown
chain 2: B3 chain 2 with C115A, C137S, C188S
chain 3: B2 chain 3
chain 4: B1 chain 4
B8: HJ-10 (bispecific antibody)
chain 1: not shown
chain 2: B3 chain 2 with C115A
chain 3: B2 chain 3
chain 4: B1 chain 4
B9: murine antibody 2 (antibody, V domains shown)
VH: EVKLVESEGGLVQPGSSMKLSCTASGFTFSDYYMAWVRQVPEKGLEWVANINFDGSSTYYLDSLKSRFIISRDNAKNILYLQMSSLKSEDTATYYCARDLDGYYGYFDVWGTGTTVTVSS
VL: QIVLTQSPAIMSASPGEKVTISCSASSSVSHMYWYQQKPGSSPKPWIYRTSNLASGVPARFSGSGSGTSYSLTISSMEAEDAATYYCQQYHSYPLMFGAGTKLELK
notes: murine hybridoma antibody
B10: murine antibody 27 (antibody, V domains shown)
VH: B9 VH with F53Y
VL: B9 VL with H31Y, M96T
notes: murine hybridoma antibody
B11: murine antibody 50 (antibody, V domains shown)
VH: QVQLQQSGAELARPGASVKLSCKASGFTFTNYGISWVKQRTGQGLEWIGEIYPRSGNTYYNTNFKGEATLTADKSSSTAFMELRSLTSEDSAVYFCARNPFTTVVEGFAFWGQGTLVTVSA
VL: DVFMTQSPLSLPVSLGDQASISCRSSQSILHSNGNTYLEWYLQKPGQSPKLLIYRVSNRFSGVPDRFSGSGSGTDFTLKISRVEAEDLGVYYCFQGLHVPPTFGAGTKLELK
notes: murine hybridoma antibody
B12: murine antibody 19 (antibody, V domains shown)
VH: EVKLVESEGGLVQPGSSMKLSCTASGFTFSDYYMAWVRQVPERGLEWVANINYDGSSTYYLDSLKSRFIISRDNAKNILYLQMSSLKSEDTATYYCARGGDYWDAMDYWGQGTSVTVSS
VL: DIQMTQTTSSLSASLGDRVTISCRASQDISKYLNWYQQKPDGTVKLLIYYTSSLHSGVPSRFSGSGSGTDYSLTISNLEQEDIATYFCQQGNRLPRTFGGGTKLEIK
notes: murine hybridoma antibody
B13: murine antibody 43 (antibody, V domains shown)
VH: EVKFEESGGGLVQPGGSMKLSCVASGFTFSNYWMNWLRQSPEKGLEWVAQVRLKSDNYATHYAESVKGRFTISRDDSKSSAYLQMNNLRAEDTGIYYCSENYYGPAGPFDFWGQGTTLTVSS
VL: DIVMTQSQKFMSTTVGDRVSITCKASQNVHTSVAWYQQKPGQSPKLLIYSASNRYSGVPDRFTGSGSGTDFTLTINNMQSEDLADYFCQQYSSYPLTFGVGTKLELK
notes: murine hybridoma antibody
B14: murine antibody 46 (antibody, V domains shown)
VH: EVQLVESGGDLVKPGGSLKLSCAASGFTFSNYGMSWVRQTPDKRIKWVATIGSGGGYTYYSDSVKGRFTISRDNAKNTLYLQMSSLKSEDTAIYYCVRHPQIGYWGQGTLVTVSA
VL: B13 VL with S20T, N28S, H30G, S32A, N53S, S56T, N76T, Q89H, V100G, L106I
notes: murine hybridoma antibody
B15: murine antibody 71 (antibody, V domains shown)
VH: QVQLVETGGGLVRPGNSLKLSCVTSGFTFSNYRMHWLRQPPGKRLEWIAVITVKSDNYGSSYAESVKGRFAISRDDSKSSVYLEMNRLREEDTATYFCSRELGQVLVFWGQGTLVTVSA
VL: DVVVTQTPLSLPVSLGDQASISCRSSQSLVHSYGNTYLHWYLQKPGQSPKLLIYKVSNRFSGVPDRFSGSGSGTDFTLKISRVEAEDLGVYFCSQTTHVPWTFGGGTKLEIK
notes: murine hybridoma antibody
B16: murine antibody 15 (antibody, V domains shown)
VH: EFQLQQSGPELVKPGASVKISCKASGYSFTDHNMNWVKQSNGKSLEWIGLINPNYGTADYNQKFKGKATLTVDQSSTTAFMQFTSLTSEDSAVYYCARGSSLFAYWGQGTLVTVSA
VL: DIVMTQSHKFMSTSVGDRVNITCKASQGVDTAVAWYQQKPGQSPKLLIYWASTRHTGVPDRFTGSGSGTDFTLTISNVQSEDLADYFCQQYSRYPLTFGAGTKLELK
notes: murine hybridoma antibody
B17: 15-F2 (bispecific antibody)
heavy 1: not shown
light 1: DIQMTQSPSSLSASVGDRVTITCKASQGVDTAVAWYQQKPGKSPKLLIYWASTRHTGVPDRFSGSGSGTDFTLTISSLQPEDVATYYCQQYSRYPLTFGQGTKLEIKRTVAAPSVFIFPPSDEQLKSGTASVVCLLNNFYPREAKVQWKVDNALQSGNSQESVTEQDSKDSTYSLSSTLTLSKADYEKHKVYACEVTHQGLSSPVTKSFNRGEC
heavy 2: not shown
light 2: not shown
notes: PSMA x CD3, Format 2
B18: 46-F1 (bispecific antibody)
heavy 1: not shown
light 1: DIQMTQSPSSLSASVGDRVTITCKASQSVGTAVAWYQQKPGKAPKLLIYSASSRYTGVPSRFSGSGSGTDFTLTISSLQPEDFADYFCHQYSSYPLTFGGGTKVEIKRTVAAPSVFIFPPSDEQLKSGTASVVCLLNNFYPREAKVQWKVDNALQSGNSQESVTEQDSKDSTYSLSSTLTLSKADYEKHKVYACEVTHQGLSSPVTKSFNRGEC
heavy 2: not shown
light 2: not shown
notes: PSMA x CD3, Format 1
B19: 46-F2 (bispecific antibody)
heavy 1: not shown
light 1: B18 light 1
heavy 2: not shown
light 2: not shown
notes: PSMA x CD3, Format 2

Biological target: hIL5 (human, UniProt P05113 20-134)
Test: ELISA

EC50 [nM]	Binder
17.4	B1
37	B2
9.46	B3
16	B4
10.9	B5
17.7	B6
18.7	B7
20.8	B8

Biological target: hTSLP (human, UniProt Q969D9 29-159)
Test: ELISA

EC50 [nM]	Binder
3.23	B1
2.88	B2
3	B3
2.64	B4
3.18	B5
2.18	B6
3.33	B7
3.17	B8

Biological target: T1, human PSMA on cells (Cho-hPSMA, CHO-K1 cells overexpressing full-length human PSMA) (human, UniProt Q04609 1-750)
T1 construct: whole, on cells; also called cell surface PSMA; PSMA-expressing Lncap cells
Test: hybridoma screening on cells

T1 sequence (Q04609 whole entry): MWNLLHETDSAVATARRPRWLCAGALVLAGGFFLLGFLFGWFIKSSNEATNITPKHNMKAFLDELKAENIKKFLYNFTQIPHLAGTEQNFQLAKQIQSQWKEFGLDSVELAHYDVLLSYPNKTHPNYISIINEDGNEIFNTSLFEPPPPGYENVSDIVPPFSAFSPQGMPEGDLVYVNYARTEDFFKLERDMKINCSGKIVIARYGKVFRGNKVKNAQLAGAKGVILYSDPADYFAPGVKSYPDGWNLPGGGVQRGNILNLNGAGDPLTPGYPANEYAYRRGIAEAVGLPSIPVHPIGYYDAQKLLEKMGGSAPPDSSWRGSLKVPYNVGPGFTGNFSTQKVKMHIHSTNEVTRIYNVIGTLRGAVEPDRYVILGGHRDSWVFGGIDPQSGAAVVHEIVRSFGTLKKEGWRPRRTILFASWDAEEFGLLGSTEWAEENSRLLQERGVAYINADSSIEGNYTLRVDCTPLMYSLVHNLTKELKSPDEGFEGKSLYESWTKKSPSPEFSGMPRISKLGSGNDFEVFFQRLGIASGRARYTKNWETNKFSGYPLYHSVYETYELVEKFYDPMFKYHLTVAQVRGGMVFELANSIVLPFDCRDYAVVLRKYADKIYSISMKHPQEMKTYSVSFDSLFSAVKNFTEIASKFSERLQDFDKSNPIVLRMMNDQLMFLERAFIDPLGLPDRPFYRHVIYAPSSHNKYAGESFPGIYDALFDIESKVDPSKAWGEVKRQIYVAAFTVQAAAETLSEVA

binding result	Binder
binds	B9
binds	B10
binds	B11
binds	B12
binds	B13
binds	B14
binds	B15
binds	B16

Biological target: T1, human PSMA on cells (Cho-hPSMA, CHO-K1 …)
Test: flow cytometry, Cho-hPSMA; antibody at 4 nM
Method: (§1) Experiment 1: Cho-hPSMA was cultured in F12 medium with 10% FBS. The medium to which cells were inoculated was incubated in a 37° C., 5% CO₂ incubator for 2 days, and cells were added to a cell plate at 1×10⁵ cells/well and washed by centrifugation. Antibodies were serially diluted, and the antibody solutions were added to the cell plate at 100 μL/well. The plate was incubated at 4° C. for 1 h and then washed. An AF488-Goat Anti-human IgG Fc fluorescent secondary antibody dilution (1:400) was added to the cell plate at 100 μL/well, and the plate was incubated at 4° C. for 1 h and then washed. PBS was added to the cell plate at 100 μL/well before plate reading.
(§2) Experiment 3: The binding activity of bispecific antibodies was measured using the method of experiment 1.

fluorescence intensity	Binder
27800	B17
12300	B18
19400	B19

Biological target: T1, human PSMA on cells (Cho-hPSMA, CHO-K1 …)
Test: flow cytometry, Cho-hPSMA; antibody at 20 nM
Method: as §1, §2

fluorescence intensity	Binder
30700	B17
28600	B18
23100	B19

Biological target: T1, human PSMA on cells (Cho-hPSMA, CHO-K1 …)
Test: flow cytometry, Cho-hPSMA; antibody at 0.8 nM
Method: as §1, §2

fluorescence intensity	Binder
15000	B17
3930	B18
8330	B19

Biological target: T1, human PSMA on cells (Cho-hPSMA, CHO-K1 …)
Test: flow cytometry, Cho-hPSMA; antibody at 100 nM
Method: as §1, §2

fluorescence intensity	Binder
26900	B17
31600	B18
23000	B19
